Test results from patent publication US20260015399A1 (Boehringer Ingelheim, published 2026).
*1 amine or outer side, *2 acyl side, *3 side chain or, on linkers, in order; H or OH if unused. Side-chain parts run from the residue outwards. The star is where a group is joined. C18 diacid = O=C(O)CCCCCCCCCCCCCCCCC(=O)*; γGlu = O=C(O)[C@H](CCC(=O)[*:2])N[*:1]; Isovaleryl = CC(C)CC(=O)*; Ahx = NCCCCCC(=O)O

T1: human NPY5 receptor (human, UniProt Q15761 1-445)
T1 sequence (looked up): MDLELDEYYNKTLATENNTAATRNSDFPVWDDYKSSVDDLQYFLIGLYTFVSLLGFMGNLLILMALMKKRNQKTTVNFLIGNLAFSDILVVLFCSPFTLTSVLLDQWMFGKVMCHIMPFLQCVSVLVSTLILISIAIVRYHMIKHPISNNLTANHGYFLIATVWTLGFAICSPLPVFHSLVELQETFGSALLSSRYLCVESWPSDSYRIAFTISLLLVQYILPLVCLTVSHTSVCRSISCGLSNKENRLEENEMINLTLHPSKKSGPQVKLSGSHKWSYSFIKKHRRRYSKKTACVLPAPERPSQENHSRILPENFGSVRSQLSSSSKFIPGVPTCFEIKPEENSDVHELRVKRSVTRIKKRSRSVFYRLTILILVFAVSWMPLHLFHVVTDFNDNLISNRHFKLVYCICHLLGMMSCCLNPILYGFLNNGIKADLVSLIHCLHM

T2: human NPY2 receptor (human, UniProt P49146 1-381)
T2 sequence (looked up): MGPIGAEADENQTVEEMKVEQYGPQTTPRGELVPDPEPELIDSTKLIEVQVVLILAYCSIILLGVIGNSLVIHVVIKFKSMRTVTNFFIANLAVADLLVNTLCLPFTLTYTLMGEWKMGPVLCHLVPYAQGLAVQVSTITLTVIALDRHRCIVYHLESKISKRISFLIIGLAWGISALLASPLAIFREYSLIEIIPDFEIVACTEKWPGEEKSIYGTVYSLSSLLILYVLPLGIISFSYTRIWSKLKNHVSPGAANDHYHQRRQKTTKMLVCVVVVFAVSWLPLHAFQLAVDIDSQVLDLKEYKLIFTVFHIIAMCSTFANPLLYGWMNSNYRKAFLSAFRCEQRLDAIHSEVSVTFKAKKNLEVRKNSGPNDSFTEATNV

T3: human NPY1 receptor (human, UniProt P25929 1-384)
T3 sequence (looked up): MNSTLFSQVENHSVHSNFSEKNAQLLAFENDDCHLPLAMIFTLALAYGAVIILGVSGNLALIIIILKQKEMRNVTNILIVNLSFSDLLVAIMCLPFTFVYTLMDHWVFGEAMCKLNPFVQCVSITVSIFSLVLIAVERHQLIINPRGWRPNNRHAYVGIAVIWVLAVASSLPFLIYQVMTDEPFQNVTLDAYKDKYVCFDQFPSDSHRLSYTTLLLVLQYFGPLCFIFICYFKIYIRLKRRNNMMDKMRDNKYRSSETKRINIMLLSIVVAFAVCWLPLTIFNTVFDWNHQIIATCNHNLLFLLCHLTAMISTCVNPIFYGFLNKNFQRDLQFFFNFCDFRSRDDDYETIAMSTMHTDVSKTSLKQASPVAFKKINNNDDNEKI


Key:
[1] = target: T1, human NPY5 receptor; test: cell-based or functional assay
[2] = target: T2, human NPY2 receptor; test: cell-based or functional assay
[3] = target: human NPY4 receptor (human, UniProt P50391 1-375); test: cell-based or functional assay
[4] = target: T3, human NPY1 receptor; test: cell-based or functional assay
[5] = target: T2, human NPY2 receptor; test: RLB: displacement of 125I-PYY(1-36) from hNPY2R membranes

Chain of human NPY4 receptor (P50391 whole entry): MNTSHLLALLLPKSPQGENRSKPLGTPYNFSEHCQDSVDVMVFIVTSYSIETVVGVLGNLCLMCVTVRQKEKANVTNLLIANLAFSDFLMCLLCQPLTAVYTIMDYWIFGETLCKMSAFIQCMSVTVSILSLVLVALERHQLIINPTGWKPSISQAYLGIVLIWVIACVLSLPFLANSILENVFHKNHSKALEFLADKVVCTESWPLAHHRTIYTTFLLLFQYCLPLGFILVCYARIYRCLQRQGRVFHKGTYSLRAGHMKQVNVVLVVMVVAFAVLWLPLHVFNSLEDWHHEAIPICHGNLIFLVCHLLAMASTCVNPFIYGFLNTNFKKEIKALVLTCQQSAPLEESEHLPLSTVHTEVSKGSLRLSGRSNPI

Binder	EC50, HTRF cAMP Gi assay [1] [nM]	EC50, HTRF cAMP Gi assay [2] [nM]	EC50, HTRF cAMP Gi assay [3] [nM]	EC50, HTRF cAMP Gi assay [4] [nM]	Ki [5] [nM]
Isovaleryl-APEK([Ahx-γGlu-C18 diacid])PEEDAEPEEVQRYYVSLRHYYNWLTRQRY-NH2 (SMILES CC(C)CC(=O)N[C@@H](C)C(=O)N1CCC[C@H]1C(=O)N[C@@H](CCC(=O)O)C(=O)N[C@@H](CCCCNC(=O)CCCCCNC(=O)CC[C@H](NC(=O)CCCCCCCCCCCCCCCCC(=O)O)C(=O)O)C(=O)N1CCC[C@H]1C(=O)N[C@@H](CCC(=O)O)C(=O)N[C@@H](CCC(=O)O)C(=O)N[C@@H](CC(=O)O)C(=O)N[C@@H](C)C(=O)N[C@@H](CCC(=O)O)C(=O)N1CCC[C@H]1C(=O)N[C@@H](CCC(=O)O)C(=O)N[C@@H](CCC(=O)O)C(=O)N[C@H](C(=O)N[C@@H](CCC(N)=O)C(=O)N[C@@H](CCCNC(=N)N)C(=O)N[C@@H](Cc1ccc(O)cc1)C(=O)N[C@@H](Cc1ccc(O)cc1)C(=O)N[C@H](C(=O)N[C@@H](CO)C(=O)N[C@@H](CC(C)C)C(=O)N[C@@H](CCCNC(=N)N)C(=O)N[C@@H](Cc1c[nH]cn1)C(=O)N[C@@H](Cc1ccc(O)cc1)C(=O)N[C@@H](Cc1ccc(O)cc1)C(=O)N[C@@H](CC(N)=O)C(=O)N[C@@H](Cc1c[nH]c2ccccc12)C(=O)N[C@@H](CC(C)C)C(=O)N[C@H](C(=O)N[C@@H](CCCNC(=N)N)C(=O)N[C@@H](CCC(N)=O)C(=O)N[C@@H](CCCNC(=N)N)C(=O)N[C@@H](Cc1ccc(O)cc1)C(N)=O)[C@@H](C)O)C(C)C)C(C)C) [Compound 53]	> 5000	0.352	> 5000	> 5000	3.07
Isovaleryl-APEK([Ahx-γGlu-C18 diacid])PEAEASPEELQRYYVSLRHYYNWLTRQRY-NH2 [Compound 122]	> 5000	–	> 5000	> 5000	2.73
Isovaleryl-APEK([Ahx-γGlu-C18 diacid])PEEDASEEEIQRYYVSLRHYYNWLTRQRY-NH2 (SMILES CC[C@H](C)[C@H](NC(=O)[C@H](CCC(=O)O)NC(=O)[C@H](CCC(=O)O)NC(=O)[C@H](CCC(=O)O)NC(=O)[C@H](CO)NC(=O)[C@H](C)NC(=O)[C@H](CC(=O)O)NC(=O)[C@H](CCC(=O)O)NC(=O)[C@H](CCC(=O)O)NC(=O)[C@@H]1CCCN1C(=O)[C@H](CCCCNC(=O)CCCCCNC(=O)CC[C@H](NC(=O)CCCCCCCCCCCCCCCCC(=O)O)C(=O)O)NC(=O)[C@H](CCC(=O)O)NC(=O)[C@@H]1CCCN1C(=O)[C@H](C)NC(=O)CC(C)C)C(=O)N[C@@H](CCC(N)=O)C(=O)N[C@@H](CCCNC(=N)N)C(=O)N[C@@H](Cc1ccc(O)cc1)C(=O)N[C@@H](Cc1ccc(O)cc1)C(=O)N[C@H](C(=O)N[C@@H](CO)C(=O)N[C@@H](CC(C)C)C(=O)N[C@@H](CCCNC(=N)N)C(=O)N[C@@H](Cc1c[nH]cn1)C(=O)N[C@@H](Cc1ccc(O)cc1)C(=O)N[C@@H](Cc1ccc(O)cc1)C(=O)N[C@@H](CC(N)=O)C(=O)N[C@@H](Cc1c[nH]c2ccccc12)C(=O)N[C@@H](CC(C)C)C(=O)N[C@H](C(=O)N[C@@H](CCCNC(=N)N)C(=O)N[C@@H](CCC(N)=O)C(=O)N[C@@H](CCCNC(=N)N)C(=O)N[C@@H](Cc1ccc(O)cc1)C(N)=O)[C@@H](C)O)C(C)C) [Compound 55]	> 5000	0.352	> 5000	> 5000	2.96

These reach a lower Ki [5]. Values come first.

EC50, HTRF cAMP Gi assay [1] [nM]	EC50, HTRF cAMP Gi assay [2] [nM]	EC50, HTRF cAMP Gi assay [3] [nM]	EC50, HTRF cAMP Gi assay [4] [nM]	Ki [5] [nM]	Binder
> 5000	0.136	> 5000	> 5000	1.4	Isovaleryl-APEK([Ahx-γGlu-C18 diacid])PEADASPEEIQRYYISLRHYYNWLTRQRY-NH2 (SMILES CC[C@H](C)[C@H](NC(=O)[C@H](Cc1ccc(O)cc1)NC(=O)[C@H](Cc1ccc(O)cc1)NC(=O)[C@H](CCCNC(=N)N)NC(=O)[C@H](CCC(N)=O)NC(=O)[C@@H](NC(=O)[C@H](CCC(=O)O)NC(=O)[C@H](CCC(=O)O)NC(=O)[C@@H]1CCCN1C(=O)[C@H](CO)NC(=O)[C@H](C)NC(=O)[C@H](CC(=O)O)NC(=O)[C@H](C)NC(=O)[C@H](CCC(=O)O)NC(=O)[C@@H]1CCCN1C(=O)[C@H](CCCCNC(=O)CCCCCNC(=O)CC[C@H](NC(=O)CCCCCCCCCCCCCCCCC(=O)O)C(=O)O)NC(=O)[C@H](CCC(=O)O)NC(=O)[C@@H]1CCCN1C(=O)[C@H](C)NC(=O)CC(C)C)[C@@H](C)CC)C(=O)N[C@@H](CO)C(=O)N[C@@H](CC(C)C)C(=O)N[C@@H](CCCNC(=N)N)C(=O)N[C@@H](Cc1c[nH]cn1)C(=O)N[C@@H](Cc1ccc(O)cc1)C(=O)N[C@@H](Cc1ccc(O)cc1)C(=O)N[C@@H](CC(N)=O)C(=O)N[C@@H](Cc1c[nH]c2ccccc12)C(=O)N[C@@H](CC(C)C)C(=O)N[C@H](C(=O)N[C@@H](CCCNC(=N)N)C(=O)N[C@@H](CCC(N)=O)C(=O)N[C@@H](CCCNC(=N)N)C(=O)N[C@@H](Cc1ccc(O)cc1)C(N)=O)[C@@H](C)O) [Compound 11]
> 5000	0.161	> 5000	> 5000	1	Isovaleryl-APEK([Ahx-γGlu-C18 diacid])PPEDAEPEEIQRYYVSLRHYYNWLTRQRY-NH2 (SMILES CC[C@H](C)[C@H](NC(=O)[C@H](CCC(=O)O)NC(=O)[C@H](CCC(=O)O)NC(=O)[C@@H]1CCCN1C(=O)[C@H](CCC(=O)O)NC(=O)[C@H](C)NC(=O)[C@H](CC(=O)O)NC(=O)[C@H](CCC(=O)O)NC(=O)[C@@H]1CCCN1C(=O)[C@@H]1CCCN1C(=O)[C@H](CCCCNC(=O)CCCCCNC(=O)CC[C@H](NC(=O)CCCCCCCCCCCCCCCCC(=O)O)C(=O)O)NC(=O)[C@H](CCC(=O)O)NC(=O)[C@@H]1CCCN1C(=O)[C@H](C)NC(=O)CC(C)C)C(=O)N[C@@H](CCC(N)=O)C(=O)N[C@@H](CCCNC(=N)N)C(=O)N[C@@H](Cc1ccc(O)cc1)C(=O)N[C@@H](Cc1ccc(O)cc1)C(=O)N[C@H](C(=O)N[C@@H](CO)C(=O)N[C@@H](CC(C)C)C(=O)N[C@@H](CCCNC(=N)N)C(=O)N[C@@H](Cc1c[nH]cn1)C(=O)N[C@@H](Cc1ccc(O)cc1)C(=O)N[C@@H](Cc1ccc(O)cc1)C(=O)N[C@@H](CC(N)=O)C(=O)N[C@@H](Cc1c[nH]c2ccccc12)C(=O)N[C@@H](CC(C)C)C(=O)N[C@H](C(=O)N[C@@H](CCCNC(=N)N)C(=O)N[C@@H](CCC(N)=O)C(=O)N[C@@H](CCCNC(=N)N)C(=O)N[C@@H](Cc1ccc(O)cc1)C(N)=O)[C@@H](C)O)C(C)C) [Compound 118]
> 5000	0.186	> 5000	> 5000	0.95	Isovaleryl-APAK([Ahx-γGlu-C18 diacid])PEEDATPEEIQRYYVSLRHYYNWLTRQRY-NH2 (SMILES CC[C@H](C)[C@H](NC(=O)[C@H](CCC(=O)O)NC(=O)[C@H](CCC(=O)O)NC(=O)[C@@H]1CCCN1C(=O)[C@@H](NC(=O)[C@H](C)NC(=O)[C@H](CC(=O)O)NC(=O)[C@H](CCC(=O)O)NC(=O)[C@H](CCC(=O)O)NC(=O)[C@@H]1CCCN1C(=O)[C@H](CCCCNC(=O)CCCCCNC(=O)CC[C@H](NC(=O)CCCCCCCCCCCCCCCCC(=O)O)C(=O)O)NC(=O)[C@H](C)NC(=O)[C@@H]1CCCN1C(=O)[C@H](C)NC(=O)CC(C)C)[C@@H](C)O)C(=O)N[C@@H](CCC(N)=O)C(=O)N[C@@H](CCCNC(=N)N)C(=O)N[C@@H](Cc1ccc(O)cc1)C(=O)N[C@@H](Cc1ccc(O)cc1)C(=O)N[C@H](C(=O)N[C@@H](CO)C(=O)N[C@@H](CC(C)C)C(=O)N[C@@H](CCCNC(=N)N)C(=O)N[C@@H](Cc1c[nH]cn1)C(=O)N[C@@H](Cc1ccc(O)cc1)C(=O)N[C@@H](Cc1ccc(O)cc1)C(=O)N[C@@H](CC(N)=O)C(=O)N[C@@H](Cc1c[nH]c2ccccc12)C(=O)N[C@@H](CC(C)C)C(=O)N[C@H](C(=O)N[C@@H](CCCNC(=N)N)C(=O)N[C@@H](CCC(N)=O)C(=O)N[C@@H](CCCNC(=N)N)C(=O)N[C@@H](Cc1ccc(O)cc1)C(N)=O)[C@@H](C)O)C(C)C) [Compound 114]
